From patent publication US20140223606, “COMPOSITIONS AND METHODS COMPRISING SEQUENCES HAVING MEGANUCLEASE ACTIVITY” (PIONEER HI BRED INTERNATIONAL INC, published 2014) come the findings set out here.

Holding throughout (conditions): tags: NLS, 6xHis
One data set addresses T1, MHP14(07) (artificial).
T1 chain: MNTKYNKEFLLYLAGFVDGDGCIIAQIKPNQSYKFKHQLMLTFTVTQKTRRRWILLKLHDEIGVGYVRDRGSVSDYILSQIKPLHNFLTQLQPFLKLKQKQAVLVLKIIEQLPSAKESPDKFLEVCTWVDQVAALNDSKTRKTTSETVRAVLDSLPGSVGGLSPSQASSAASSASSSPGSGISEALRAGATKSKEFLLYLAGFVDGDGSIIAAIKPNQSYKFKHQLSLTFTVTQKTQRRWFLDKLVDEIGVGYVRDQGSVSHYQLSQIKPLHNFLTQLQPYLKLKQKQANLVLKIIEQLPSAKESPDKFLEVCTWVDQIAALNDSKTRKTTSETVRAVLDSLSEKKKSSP
Nature of the data set: cell_activity; yeast 37 C; 28 C: 0.5. Here is the method: (§1) A 3 mL culture of selective media (MP Biomedical) was inoculated with a single colony of the yeast screening strain and grown at 30° C. overnight. On the following day, a 50 ml YPD culture (MP Biomedical) was started with 2 ml of the overnight culture and grown at 30° C. overnight. On the following day, the cells were harvested by centrifugation at 4000 rpm. The cells were resuspended in 100 ml ice cold water and centrifuged again. The cells were then washed in 1.2 M sorbitol, followed by treatment with 2 ml of 10 mM Tris pH 8.0, 1 mM EDTA, 100 mM Lithium acetate, 10 mM DTT, 0.6M sorbitol for 30 minutes at 30° C. with shaking. The cells were recovered by centrifugation, washed in 40 ml 1.2M sorbitol and finally resuspended in 250 microliters of 1.2M sorbitol. 50 microliter aliquots were transferred to test tubes on ice. Up to 5 microliters of DNA (100-500 nanograms) were added. The suspension was transferred to a 0.2 cm electroporation cuvette, on ice. Electroporation was performed with a pulse charge at 1.5 kV, 200 ohms, 25 microF (pulse time of 5 milliseconds). 1 mL YPD media (MP Biomedical) was added and the cells were allowed to recover at 30° C. for 1-2 hr. The cells were centrifuged, resuspended in 100 uL 1M sorbitol and plated on selective media lacking leucine and containing 2% galactose. The resulting yeast colonies were incubated at various temperatures ranging from 22 to 37 degrees Celsius for 7-10 days. I-CreI and meganucleases derived from it have maximal activity at or above 37 degrees Celsius. Screening was performed at a range of temperatures from 22 to 37 degrees in order to observe increases in activity at lower temperatures which are relevant to certain biological systems (eg. plant cells, plant cell cultures, etc). At that time the red/white sectoring phenotype, indicative of meganuclease activity was observed. Colonies with increased white sectoring over the parental meganuclease (indicating colonies expressing a meganuclease with increased meganuclease activity), also referred to as “hits” and sometimes completely white, were isolated for further analysis. […]

A further data set has as its target T2, MHP14(L14-07) (artificial).
T2 chain: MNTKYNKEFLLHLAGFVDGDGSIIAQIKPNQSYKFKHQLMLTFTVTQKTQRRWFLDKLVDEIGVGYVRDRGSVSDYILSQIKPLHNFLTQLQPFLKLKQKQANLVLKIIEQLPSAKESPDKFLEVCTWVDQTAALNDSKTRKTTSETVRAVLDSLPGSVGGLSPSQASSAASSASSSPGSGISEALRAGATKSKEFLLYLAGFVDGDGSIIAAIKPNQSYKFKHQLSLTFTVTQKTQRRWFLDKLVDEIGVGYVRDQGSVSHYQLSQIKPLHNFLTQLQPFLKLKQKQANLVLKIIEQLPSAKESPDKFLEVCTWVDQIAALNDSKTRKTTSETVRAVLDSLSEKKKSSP
Nature of the data set: cell_activity; yeast 37 C; 28 C: 0.5. Here is the method: as §1

The target in a further data set is T3, MHP14(03) (artificial).
T3 chain: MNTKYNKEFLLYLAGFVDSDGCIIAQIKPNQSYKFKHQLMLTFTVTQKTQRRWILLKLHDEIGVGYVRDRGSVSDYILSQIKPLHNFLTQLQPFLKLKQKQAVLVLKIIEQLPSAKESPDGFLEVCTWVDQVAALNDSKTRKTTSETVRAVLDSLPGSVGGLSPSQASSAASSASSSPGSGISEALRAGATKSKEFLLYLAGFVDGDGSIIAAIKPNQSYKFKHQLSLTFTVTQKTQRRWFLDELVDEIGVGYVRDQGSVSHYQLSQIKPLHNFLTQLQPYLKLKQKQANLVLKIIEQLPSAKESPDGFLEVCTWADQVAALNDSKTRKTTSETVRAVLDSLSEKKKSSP
Nature of the data set: cell_activity; yeast 37 C; 28 C: 0.5. Here is the method:
as §1

The target of a further data set is T4, LIG3-4(B73) (artificial).
T4 chain: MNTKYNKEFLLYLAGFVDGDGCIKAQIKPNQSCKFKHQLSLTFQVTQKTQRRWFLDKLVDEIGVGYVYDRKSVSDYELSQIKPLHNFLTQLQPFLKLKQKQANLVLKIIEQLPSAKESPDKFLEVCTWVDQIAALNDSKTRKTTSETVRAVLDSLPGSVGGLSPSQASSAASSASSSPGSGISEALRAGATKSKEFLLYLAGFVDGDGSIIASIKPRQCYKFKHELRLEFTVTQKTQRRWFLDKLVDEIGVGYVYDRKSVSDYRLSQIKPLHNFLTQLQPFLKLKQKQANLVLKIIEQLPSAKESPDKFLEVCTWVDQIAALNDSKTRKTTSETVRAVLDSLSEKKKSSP
Nature of the data set: cell_activity; yeast 30 C; 22 C: 4. Here is the method:
(§2) A 3 mL culture of selective media (MP Biomedical) was inoculated with a single colony of the yeast screening strain and grown at 30° C. overnight. On the following day, a 50 ml YPD culture (MP Biomedical) was started with 2 ml of the overnight culture and grown at 30° C. overnight. On the following day, the cells were harvested by centrifugation at 4000 rpm. The cells were resuspended in 100 ml ice cold water and centrifuged again. The cells were then washed in 1.2 M sorbitol, followed by treatment with 2 ml of 10 mM Tris pH 8.0, 1 mM EDTA, 100 mM Lithium acetate, 10 mM DTT, 0.6M sorbitol for 30 minutes at 30° C. with shaking. The cells were recovered by centrifugation, washed in 40 ml 1.2M sorbitol and finally resuspended in 250 microliters of 1.2M sorbitol. 50 microliter aliquots were transferred to test tubes on ice. Up to 5 microliters of DNA (100-500 nanograms) were added. The suspension was transferred to a 0.2 cm electroporation cuvette, on ice. Electroporation was performed with a pulse charge at 1.5 kV, 200 ohms, 25 microF (pulse time of 5 milliseconds). 1 mL YPD media (MP Biomedical) was added and the cells were allowed to recover at 30° C. for 1-2 hr. The cells were centrifuged, resuspended in 100 uL 1M sorbitol and plated on selective media lacking leucine and containing 2% galactose. The resulting yeast colonies were incubated at various temperatures ranging from 22 to 37 degrees Celsius for 7-10 days. I-CreI and meganucleases derived from it have maximal activity at or above 37 degrees Celsius. Screening was performed at a range of temperatures from 22 to 37 degrees in order to observe increases in activity at lower temperatures which are relevant to certain biological systems (eg. plant cells, plant cell cultures, etc). At that time the red/white sectoring phenotype, indicative of meganuclease activity was observed. Colonies with increased white sectoring over the parental meganuclease (indicating colonies expressing a meganuclease with increased meganuclease activity), also referred to as “hits” and sometimes completely white, were isolated for further analysis.

In the next data set the target is T5, LIG3-4(B75) (artificial).
T5 chain: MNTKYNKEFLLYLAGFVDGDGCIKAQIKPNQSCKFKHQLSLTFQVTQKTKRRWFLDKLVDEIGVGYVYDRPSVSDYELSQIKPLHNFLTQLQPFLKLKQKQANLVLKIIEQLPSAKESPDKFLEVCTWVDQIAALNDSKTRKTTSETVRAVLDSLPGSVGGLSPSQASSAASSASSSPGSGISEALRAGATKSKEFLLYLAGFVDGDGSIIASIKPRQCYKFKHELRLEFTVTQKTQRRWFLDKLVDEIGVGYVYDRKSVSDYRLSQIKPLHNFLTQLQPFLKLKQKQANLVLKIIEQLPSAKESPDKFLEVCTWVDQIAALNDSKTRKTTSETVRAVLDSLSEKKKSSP
Nature of the data set: cell_activity; yeast 30 C; 22 C: 4. Here is the method:
as §2

B1: MHP14 recognition site (dsDNA)
DNA 1: CAAACAGATTCACGTCAGATTT
DNA 2: AAATCTGACGTGAATCTGTTTG
Consider B1, for which the activity stood at 2.5 score 0-4 in the data set with MHP14(07), 4 score 0-4 with MHP14(L14-07) and 3 score 0-4 with MHP14(03).

B2: LIG3-4 recognition site (dsDNA)
DNA 1: ATATACCTCACACGTACGCGTA
DNA 2: TACGCGTACGTGTGAGGTATAT
With B2, the activity with LIG3-4(B73) and with LIG3-4(B75) was 4 score 0-4 each time.
